Assay results as given in article doi:10.1101/2024.12.02.626503 (bioRxiv, 2024).
Blank lines part the entries; values can stand above or below the binder they belong to. The star is where a group is joined. 5‑TAMRA = CN(C)c1ccc2c(-c3ccc(C(=O)*)cc3C(=O)[O-])c3ccc(N(C)C)cc3[o+]c2c1

Target: CaM WT (UniProt P0DP23 1-149)
Assay: fluorescence polarisation

binding result: binds
B1: 5-TAMRA-labeled CaV1.3 IQ peptide (peptide)
peptide: not shown
modifications: 5-TAMRA on the N-terminus; C-terminal amide (NH2)

binding result: binds
B2: 5-TAMRA-labeled CaV2.1 IQ peptide (peptide)
peptide: {5‑TAMRA}-TDLTVGKIYAAMMIMEYYRQSKAKKLQAMREEQD-NH2
SMILES: CC[C@H](C)[C@H](NC(=O)[C@H](CCCCN)NC(=O)CNC(=O)[C@@H](NC(=O)[C@@H](NC(=O)[C@H](CC(C)C)NC(=O)[C@H](CC(=O)O)NC(=O)[C@@H](NC(=O)c1ccc(-c2c3ccc(N(C)C)cc3[o+]c3cc(N(C)C)ccc23)c(C(=O)[O-])c1)[C@@H](C)O)[C@@H](C)O)C(C)C)C(=O)N[C@@H](Cc1ccc(O)cc1)C(=O)N[C@@H](C)C(=O)N[C@@H](C)C(=O)N[C@@H](CCSC)C(=O)N[C@@H](CCSC)C(=O)N[C@H](C(=O)N[C@@H](CCSC)C(=O)N[C@@H](CCC(=O)O)C(=O)N[C@@H](Cc1ccc(O)cc1)C(=O)N[C@@H](Cc1ccc(O)cc1)C(=O)N[C@@H](CCCNC(=N)N)C(=O)N[C@@H](CCC(N)=O)C(=O)N[C@@H](CO)C(=O)N[C@@H](CCCCN)C(=O)N[C@@H](C)C(=O)N[C@@H](CCCCN)C(=O)N[C@@H](CCCCN)C(=O)N[C@@H](CC(C)C)C(=O)N[C@@H](CCC(N)=O)C(=O)N[C@@H](C)C(=O)N[C@@H](CCSC)C(=O)N[C@@H](CCCNC(=N)N)C(=O)N[C@@H](CCC(=O)O)C(=O)N[C@@H](CCC(=O)O)C(=O)N[C@@H](CCC(N)=O)C(=O)N[C@@H](CC(=O)O)C(N)=O)[C@@H](C)CC
